{
  "source": "the DeepSol protein solubility set",
  "data": [
    {"experiment": "soluble on expression in E. coli; label from the status in PepcDB or PDB records", "values": [
      {"sequence": "GMASSFLEEVDRLITLSGITFHASGTGTPELIKIYQDALGNEFPETYKLFLEKYGTLTFNGVSFYGISKRGLSAASIPDVKFATEQARTFGDINKEMIMIKNSGYGSIFSIDTSIIGSEGEPVIVETNLSFKDNTEKKVVANSFGEFLLEEIELSLTDLG", "soluble on expression in E. coli": "soluble"},
      {"sequence": "MGHHHHHHSHMKPLIWTWSDVEGQRPALLICTAAAGPTQGVKGYGKPFEPRSVKNIHSTPAYPDATMHRQLLAPVEGRMAETLNQKLHVANVLEDDPGYLPHVYSEEGECGGAPSLSSLASLEQELQPDLLDSLGSKATPFEEIYSESGVPS", "soluble on expression in E. coli": "not soluble"},
      {"sequence": "MGSDKIHHHHHHMNEDLFYDRLHQRCPGKYLLEELETSKSNDVLHASRFVCEMELVQKTNAYYCKTIVKMLLDHEWIFAKAFTIVNDGEDEIEIYDYLYEKYIKLLSTGKPDPMMKDVVRYRFDEDVKITIEETPNLISAASTTGFRTWEAALYMGDFLIHKPLQELAPVQGQDDGKKKLNVLEVGAGTGIVSLVILQKYHEFVNKMYVTDGDSNLVETQLKRNFELNNEVRENEPDIKLQRLWWGSDRVPEDIDLVVGADVTYDPTILPDLCECLAECLALDRCKLCLLSATIRSESTVQLFSQECNKLGLKCTIVTSTEYDANNEIRAMKALQFKPLIAPIRIYKITKQ", "soluble on expression in E. coli": "not soluble"},
      {"sequence": "KAPLRDMRFVLNEVFEVSRLWAQLPALAEVVDAETAAAILEEAGKVTAGTIAPLNRPGDEEGCQWNAGAVSTPAGFPEAYRTYAEGGWVGVGGDPAYGGMGMPKVISAQVEELVNSANLSFGLYPMLTAGACLALNAHASDELKDKYLPNMYAGIWAGSMCLTEPHAGTDLGIIRTRAEPQADGSYKISGTKIFITGGEHDLTENIIHLVLAKLPDAPAGPKGISLFLVPKVLVNADGSLGEKNSLGCGSIEHKMGIKASATCVMNFDGATGWLVGEVNKGLAAMFTMMNYERLGVGIQGLATGERSYQSAIEYARERIQSRAPTGPVAKDKAADPIIVHPDVRRMLLTMKALNEGGRAFSSYVAMQLDTAKYSEDAVTRKRAEELVALLTPVAKAFLTDMGLETTIHGQQIFGGHGFIREWGQEQLVRDCRITQIYEGTNGIQALDLVGRKVIGSGGAFSRHFTDEIKAFVASADEALGEFSKPLAAAVENLEELTAWLLDRAKGNPNEIGAASVEYLHVFGYTAYAYMWALMARTALAKQGEDDFYASKLGTARFYFARLLPRIHSLSASVRAGS", "soluble on expression in E. coli": "not soluble"},
      {"sequence": "MDTPPTVFSIIIPVYNRPDEVRELLESLLIQTNSDFEVIIVEDGSSVCCDKEVDRVRELLRIQYVRVPNGGPAAARNIGARMAVGEYLLILDSDVVLPSGYIAAVKKRIEQMQADAFGGPDAAAEGFSPIQKAINYAMTSFFTTGGIRGGRRVRLDKFYPRSFNFGCKLSVYRQLGGFSEEMRFGEDIDFSLRLFKAGYNVCLFPEAFVFHKRRIDFKKFFRQVYNSGIARIHLQRRHPGSMKP", "soluble on expression in E. coli": "not soluble"},
      {"sequence": "MAHHHHHHMNTHVISVGSRWVHHEVTQALRQRRGVRVEVNEELQHCDFASRASSVLYCDAHSAEMQRDQASLVLRLQEARQRCGTQPVILMVRMDSDNEVSLERLSWLNLECGVAQQCGLILVWSLDDAVQYLASLAAYAVTSLEFTGAARPYVGDAPLPVLVDALTQTPQVVTRNDVVRIANRKTSVADALMSEASEWEGIAGLGRKKAARLQHLFRTPFLSSQQRIDSFVPATGGSSFSTASKAAESHLSQPTGESTARPTEALSVDTAVTTEGRRRMMSALQQRLDKEDEEGGE", "soluble on expression in E. coli": "not soluble"},
      {"sequence": "SLGRNWRSWRYAERADDLLISRGVLWREETVVPYGRMQLVEVTSGPVERHFGLASVQLHTAAAATDATIPGLDPAEAERLRDRLTELGEARSAG", "soluble on expression in E. coli": "soluble"},
      {"sequence": "MGSDKIHHHHHHMNSIVNDLNRALAQHLLVNVYQTNQEVVYTGYVTTVSDTGIILATYDDYGIPDGAVFLDLTAIDEVEFSSDDLDNMAFRIQTAQDEQFVQAGGLTLQFDGHRDLKRQVLSHAWVDHLVLMLVLKDDEHFYEGIVTSVAAEQVSLQLLNKFDYTDQPLLTLTPKDIEVIEFQGQELTLQGIALPHLQKLSHVAPTTVTDADQFVPTLQQLVGKEPLVALVPKHNRELFFVGRINTVTADGVIMNLLDMTGQFGGYTLMRLSELHEIVLKSDYLQTMRLFALLNRARQQPIQPVLNDERLFDATVDQFGARISQAAAFRTIIRLKLHDGTDLLGFPSQVGGQRFIFHEIDDQQVDQVGQVYRLADVDEVAFGYLDAYLVERQLRVEGDL", "soluble on expression in E. coli": "not soluble"},
      {"sequence": "PRLEFEKPVIELQTKIAELKKFTQDSDMDLSAEIERLEDRLAKLQDDIYKNLKPWDRVQIARLADRPTTLDYIEHLFTDFFECHGDRAYGDDEAIVGGIAKFHGLPVTVIGHQRGKDTKENLVRNFGMPHPEGYRKALRLMKQADKFNR", "soluble on expression in E. coli": "not soluble"},
      {"sequence": "MSLRVIDTHCDALYKLQAGKGKYTFQDAEELDVNFERLIEAKMLLQGFAIFLDEDIPVEHKWKKAVEQVNIFKQHVLHKGGIIHHVKKWCDLENLPEDKIGAMLTLEGIEPIGRDLDKLTQLLDGGVLSVGLTWNNANLAADGIMEERGAGLTRFGKDIIHLLNERKVFTDVSHLSVKAFWETLEQAEFVIASHSSAKAICAHPRNLDDEQIKAMIEHDAMIHVIFHPLFTTNDGVADIEDVIRHIDHICELGGMKNIGFGSDFDGIPDHVKGLEHAGKYQNFLETLGKHYTKEEVEGFASRNFLNHLPKEGHHHHHH", "soluble on expression in E. coli": "soluble"},
      {"sequence": "MGSDKIHHHHHHMTQEDKKLSCTDCALLNCHKKDKTFPQFCLTTHTPEETIEGVNELYRKDDFVAKLSNAAAEIEGTYYGKLTRVEEIMAFAKRIGAKKIGIATCVGLMSEARIFAKILKAKGLESYGIICKVGAVDKTQVGVPEELKVNKGCHESLCNPVLQATLLNEEKTDLNVIVGLCVGHDSLFIKYSEAPVTTLITKDRVLGHNPAAALYASGFYYRRLLQEGDL", "soluble on expression in E. coli": "not soluble"},
      {"sequence": "EQGREPSWGFTEKSRTRDIPETLVPLITVTPSTELYRITGWGALEGHKVFYHETYINPEVAPGFIEQLENHSFSAVWEKCYQKETVVKKLIFKPVRMPGDISKYLGGSAGMPAILIEKHRADQQGNIVQIDIEYWRFEAVDLIINL", "soluble on expression in E. coli": "not soluble"},
      {"sequence": "MSKTRIAFVGAGNMAASLIGGLRAQGVEASLICASAPGAETRERISTEHGIEVFADNAEAVKGADVVVLAVKPQMMKSVCQALKASLEAHQLIVSVAAGITCASLTQWLGDQPVVRCMPNTPSLLRQGASGLYATDKVSPTQREQAEQLLSAVGVAVWVEQEKHMDAVTAVSGSGPAYFFLMMEAMTAAGVKLGLPEDIAKKLTLQTALGSALIATGSNVDAGELRRRVASPGGTTEAAIKAFQAGGFEALVETALTAADHRAAELAEQLGKLEHHHHHH", "soluble on expression in E. coli": "not soluble"},
      {"sequence": "MHWGVGFASSRPCVVDLSWNQSISFFGWWAGSEEPFSFYGDIIAFPLQDYGGIMAGLGSDPWWKKTLYLTGGALLAAAAYLLHELLVIRKQQEIDSKDAIILHQFARPNNGVPSLSPFCLKMETYLRMADLPYQNYFGGKLSAQGKMPWIEYNHEKVSGTEFIIDFLEEKLGVNLNKNLGPHERAISRAVTKMVEEHFYWTLAYCQWVDNLNETRKMLSLSGGGPFSNLLRWVVCHITKGIVKREMHGHGIGRFSEEEIYMLMEKDMRSLAGLLGDKKYIMGPKLSTLDATVFGHLAQAMWTLPGTRPERLIKGELINLAMYCERIRRKFWPEWHHDDDNTIYESEESSEGSKTHTPLLDFSFYSRTETFEDEGAENSFSRTPDTDFTGHSLFDSDVDMDDYTDHEQCK", "soluble on expression in E. coli": "not soluble"},
      {"sequence": "MDAGYFRGANSEQDGRFSDKEKKLLKTMKFEPQLEQKIDLNRCNMDVIKPWITARVNDILGMEDDVVVEYILSQIDDKNLNPKLLQINVTGFLNARRAREFVGDLWNLLIEANASEDGIPASLVNQKMAEMKTNDRDEKGDDREDNDWTNRYKTLSNGRYTGPAREKAVRDDRIPARALSPRKTPPRRNASPGGDGGGGSPAARRGGSAGNRRRSPPRRGSPRRGSPRRDTRRSPPRRRGSPPARGGDRRDRREDRRPVRDEKEREEESRRREIERKKRHEEAELRQKAIASVAARAKSGSPRRRRSPSASKSPPPARRRRSPSQSKSPAPKRAKSRSKSPPAPARRRRSPSASKSPPPAPKRAKSRSKSPPARRRRSPSASKSPPAPRRRRSPSKSRSPAPKREIPPARRRRSPSASKSPPAPKRAKSRSKSPPAPRRRRSPSQSKSPAPRRRRSPSKSPQAPRRRRSPSGSKSRSPRRRRSPAAAPRRRQSPQRRRSPRRRRSPSSSSRSRSPPPPPRRPRQDSEQQAPVAVKSPEMKKRRPNDTDSDVSVDSEAEEERRRKKAKKEKKAAKKHKKEKKSKKHRKRRSPSASESGSESD", "soluble on expression in E. coli": "soluble"},
      {"sequence": "MTLPVRKSLHDAVLQASKADTWEQATKEWNEVSFIFNGIGRSNCVCGNAIKYAYELFNGVTGQRLFPIGSDCVRHFHRLSLDQQLEEEEKLLRKVENLTRKAQKKEKIKVNKSNFDERLLKWLWEKGVFKPNRGNQFAPERDYQLFLEVFQGGSWTKAEPKKKARMEEVLEKCIKPFLLGKSDDQLYLVKLGKEKIDYEQELRIQAEKERKKRDKIAKQYADNLVLAMGPAERAYQDYFGFTETLTQEERKWEKILFGKNRAERAIKAKQYQKELEKDQRIASQDPIERKQKQTWILNSYFRELPEEKARFSRLLLEYRKSGEVPFSTEYLSDHLIDFFYKMKAFEFEIAPEQVRDFLKKSLQEDHRSSAQGSWIEGILLNCLKPFLERLVI", "soluble on expression in E. coli": "not soluble"},
      {"sequence": "MLWTENITLRFGGVTALDNVSVEVRRGEILGIIGPNGAGKTSLLNVITGVYKPQRGRVYFKGRDITGLKPHQRITLGLSRTFQHSELFHSMTVLENIMVRLHPWTRGSILEKALWAFRAKRWEVEARERAEHVIDLLDLHEHRHSPIGALPPGIQKKVDLAGALAQNPEVVLMDEPMAGLSKEEKEDIVRAIIETSETMHTTMVLIEHDMEVVTDVCDRVVVMDYGKVIFEGPPHEAVADERVRKAYLGE", "soluble on expression in E. coli": "soluble"},
      {"sequence": "MKMKYEWRKQEKTTYATKKQPQLLTIPAQTFMSIHGTGNPNGPEFQTHLQTLYPAAYGLKHAYKQYAQTQACEFDDYVVFPLEGVWSLTIKGQQLDHLDKDEFSYDIMIRVPDFVPNELIAPALAAVKAKKQLPTEQINVQQFDAMQVAQILHLGAYDDEPASFAKIDELVANQGMHRTSKIHREIYLSDARRVAPDKLKTILRYRVASN", "soluble on expression in E. coli": "not soluble"},
      {"sequence": "QNFLNDQFVIDSIVSAINPQKGQAMVEIGPGLAALTEPVGERLDQLTVIELDRDLAARLQTHPFLGPKLTIYQQDAMTFNFGELAEKMGQPLRVFGNLPYNISTPLMFHLFSYTDAIADMHFMLQKEVVNRLVAGPNSKAYGRLSVMAQYYCNVIPVLEVPPSAFTPPPKVDSAVVRLVPHATMPHPVKDVRVLSRITTEAFNQRRKTIRNSLGNLFSVEVLTGMGIDPAMRAENISVAQYCQMANYLAENA", "soluble on expression in E. coli": "soluble"},
      {"sequence": "MSLRKEPSSQLELFLNILHGFSTTITSETLNKISEKFLDMVNGSINPSLSLKNKITIVFQDCLTNGFQSANLSKLLENLNSIDVVEVLSEFIHCDLKVGAFSVIDLLDTDIFLSVLSMESLKQTLSIMDKFIIDILLVFTIVDINYEVFAEKLSKLITLHFNISLWLQVYQIDKLLAISETFGHVTKYNYGAQLKSYSDITDFTTLMVGFVKNSPTAEPPIFTRAFSDFILNGEDLTCAKQFLHFVAKPYHVSKDPVEELLYALSLFKCNEYDASIEIFLANDFSDELSLPKYLEVTENHVWYNLLHAINTKDKPAYYYELSVLCSKASSYANALKTIKKSISLDGTRADQLIQYLDTLIVFGDYKEVLDVLRLEQKVLDISLREKYYYTLLSDQKYSEMFTATLLQECYNANISNGSILLCVSDYKIIASILSSQVSLTDWNSYKKLFSFRILNQHERKACEELYDYVLFGSNDEVKEKCLLLISNVLKTFSDAKDQWFISYPGQIIHLHELNDKMNKCSKEGHHHHHH", "soluble on expression in E. coli": "not soluble"}
    ]}
  ]
}
